# Article PMC9138216
# Target: Bacillus pumilus bilirubin oxidase (Bacillus pumilus)
# Test: crystal structure; X-ray, 3.5 Å; crystals grown at 20 °C in 0.1 M sodium citrate pH 5.5, 20% PEG 3000; dimer interface analysed with PDBePISA
substance,measurement,value
Bacillus pumilus bilirubin oxidase (enzyme),stoichiometry N,2
